Patent publication US20190032056, “STEM-LOOP COMPOSITIONS AND METHODS FOR INHIBITING FACTOR D” (Vitrisa Therapeutics, Inc., published 2019)

Assays:
complement Factor D (fD) [1] = molecular target: T1, complement Factor D (fD) (Homo sapiens, UniProt P00746 SEQ:1-228); assay: TR-FRET, 25 C; settings: tags: His-tagged recombinant, bead-immobilized via His capture beads (flow) or anti-His Eu (TR-FRET); hairpin
Description: (§1) The binding affinity of aptamers for fD was determined in solution using a homogenous time-resolved fluorescence resonance energy transfer (TR-FRET) assay (Table 21). In brief, 2.5 nM recombinant human Factor D with a hexahistidine tag (SEQ ID NO:324) (His), 2.5 nM anti-His Europium, and varied concentrations of Dylight® 650-labeled aptamer was added to half-well black 96-well plates in TR-FRET buffer (50 mM MOPS, pH 7.4, 125 mM NaCl, 5 mM KCl, 0.1 mg/mL BSA, 50 μM CHAPS, 1 mM CaCl₂ and 1 mM MgCl₂). After 1 hour incubation at 25° C., binding activity was assessed using a BioTek® Cytation™ 5 plate reader. Affinity binding constants were calculated as the concentration at which 50% of aptamer is bound using a single site binding model, with values ranging from 0.66 nM to 2.5 nM (Table 21).

complement Factor D (fD) [2] = molecular target: T1, complement Factor D (fD); assay: SPR; settings: tags: amine-coupled to dextran chip for SPR; free in esterase assay; hairpin
Description: (§2) The binding affinity of aptamers for fD was determined by surface plasmon resonance (SPR) on a Reichert4 SPR System, where either aptamer or fD was immobilized as ligand on a solid surface and the interactant analyte was flowed in solution over the immobilized ligand (Table 20).

[3] = molecular target: T2, complement Factor D (fD) in C1q-depleted human serum (Homo sapiens, UniProt P00746 SEQ:1-228); assay: inhibition; hemolysis, sd 0.8; settings: protein: extract; tags: endogenous fD, about 9.6 nM in 10% serum; hairpin
Description: (§3) In V-bottom 96-well plates the following reagents were added to a final volume of 250 μL: appropriate volume of 1× Veronal buffer with 0.1% gelatin, 100 μL aptamer, 30 μL of C1q-depleted human serum and 20 μl RBCs. This mixture was incubated for 25 minutes at room temperature, then the reaction was stopped by the addition of 5 μL of 500 mM EDTA. The plate was centrifuged for 5 minutes at 500×g at room temperature, then 100 μL of supernatant was removed and the extent of RBC lysis was determined by measuring absorbance at 405 nm.
(§4) The potency of the PEG-aptamers P01, P04, P06, P07 and P08 compared to their non-pegylated counterparts was determined in the alternative complement-dependent hemolysis assay as described in Example 2.

[4] = molecular target: T2, complement Factor D (fD) in …; assay: inhibition; hemolysis, sd 0.9; settings: protein: extract; tags: endogenous fD, about 9.6 nM in 10% serum; hairpin
Description: as §3, §4

complement Factor D (fD) [5] = molecular target: T1, complement Factor D (fD); assay: TR-FRET, 50 mM MOPS pH 7.4, 125 mM NaCl, 1 mM Ca and Mg, 25 C; settings: tags: His-tagged recombinant, bead-immobilized via His capture beads (flow) or anti-His Eu (TR-FRET); hairpin
Description: as §1

complement Factor D (fD) [6] = molecular target: T1, complement Factor D (fD); assay: SPR; fD immobilized; settings: tags: amine-coupled to dextran chip for SPR; free in esterase assay; hairpin
Description: as §2

[7] = molecular target: T2, complement Factor D (fD) in …; assay: inhibition; hemolysis, sd 1.4; settings: protein: extract; tags: endogenous fD, about 9.6 nM in 10% serum; hairpin
Description: as §3, §4

complement Factor D (fD) [8] = molecular target: T1, complement Factor D (fD); assay: flow; bead-based direct binding; settings: tags: His-tagged recombinant, bead-immobilized via His capture beads (flow) or anti-His Eu (TR-FRET); hairpin
[9] = molecular target: T2, complement Factor D (fD) in …; assay: inhibition; hemolysis, sd 4.4; settings: protein: extract; tags: endogenous fD, about 9.6 nM in 10% serum; hairpin
Description: as §3, §4

complement Factor D (fD) [10] = molecular target: T1, complement Factor D (fD); assay: flow; bead-based direct binding, 37 C; settings: tags: His-tagged recombinant, bead-immobilized via His capture beads (flow) or anti-His Eu (TR-FRET); hairpin
[11] = molecular target: T2, complement Factor D (fD) in …; assay: inhibition; hemolysis, sd 0.4; settings: protein: extract; tags: endogenous fD, about 9.6 nM in 10% serum; hairpin
Description: as §3, §4

[12] = molecular target: T2, complement Factor D (fD) in …; assay: inhibition; hemolysis, sd 1.5; settings: protein: extract; tags: endogenous fD, about 9.6 nM in 10% serum; hairpin
Description: as §3, §4

[13] = molecular target: T2, complement Factor D (fD) in …; assay: inhibition; hemolysis, sd 0.5; settings: protein: extract; tags: endogenous fD, about 9.6 nM in 10% serum; hairpin
Description: as §3, §4

[14] = molecular target: T2, complement Factor D (fD) in …; assay: inhibition; hemolysis, sd 0.1; settings: protein: extract; tags: endogenous fD, about 9.6 nM in 10% serum; hairpin
Description: as §3, §4

[15] = molecular target: T2, complement Factor D (fD) in …; assay: inhibition; hemolysis, sd 0.6; settings: protein: extract; tags: endogenous fD, about 9.6 nM in 10% serum; hairpin
Description: as §3, §4

[16] = molecular target: T2, complement Factor D (fD) in …; assay: inhibition; hemolysis; Table 17 lists about 10 nM; settings: protein: extract; tags: endogenous fD, about 9.6 nM in 10% serum; hairpin
Description: as §3

T1 sequence (P00746 26-253): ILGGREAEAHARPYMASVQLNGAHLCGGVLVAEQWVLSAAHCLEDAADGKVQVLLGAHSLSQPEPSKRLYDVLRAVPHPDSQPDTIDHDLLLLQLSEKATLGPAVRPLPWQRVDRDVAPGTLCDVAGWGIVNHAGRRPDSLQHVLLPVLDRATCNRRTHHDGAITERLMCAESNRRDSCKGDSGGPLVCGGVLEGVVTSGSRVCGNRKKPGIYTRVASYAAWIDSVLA
T2 sequence (P00746 26-253): as above

CCGACUUGCCAGUAUUGGCGAUGGCUGGAAGUUUGUCGG (ssRNA, 2'-F G except 2'-OMe G in stem 1; 2'-OMe A,C,U; 5' C6NH2; 3' idT) [Aptamer 76] was tested, and the Kd (complement Factor D (fD) [1]) was 0.8 nM, the Kd (complement Factor D (fD) [2]) was 1.6 nM and the IC50 [3] was 4.2 nM.

In the case of CCGACUUGCCAGUAUUGGCGAUGGCUGGAAGUUUGUCGG (ssRNA, as Aptamer 76; 5' 40 kDa branched PEG via C6NH2; 3' idT) [P06 (PEGylated Aptamer 76)], the IC50 [4] is reported as 4.1 nM.

Work on CCGCCUUGCCAGUAUUGGCUUAGGCUGGAAGUUUGGCGG (ssRNA, 2'-F G except 2'-OMe G at 3,35,36,38,39; 2'-OMe A,C,U; 5' C6NH2; 3' idT) [Aptamer 74] yielded a Kd (complement Factor D (fD) [5]) of 2.5 nM, a Kd (complement Factor D (fD) [6]) of 3.7 nM and an IC50 [7] of 7 nM. For the same binder, the Kd (complement Factor D (fD) [8]) was 2.7 nM.

CCGCCUUGCCAGUAUUGGCUUAGGCUGGAAGUUUGGCGG (ssRNA, 2'-F G; 2'-OMe A,C,U; 5' C6NH2; 3' idT) [Aptamer 15] showed an IC50 [9] of 9.4 nM and a Kd (complement Factor D (fD) [10]) of 8.37 nM.

With CCGACUUGCCAGUAUUGGCUUAGGCUGGAAGUUUGUCGG (ssRNA, 2'-F G except 2'-OMe G in stem 1; 2'-OMe A,C,U; 5' C6NH2; 3' idT) [Aptamer 106] the IC50 [11] was 5.2 nM, the Kd (complement Factor D (fD) [1]) was 0.66 nM and the Kd (complement Factor D (fD) [2]) was 1.7 nM.

CCGCCUUGCCAGUAUUGGCUUAGGCUGGAAGUUUGGCGG (ssRNA, 2'-F G; 2'-OMe A,C,U; 5' 40 kDa branched PEG via C6NH2; 3' idT) [P01 (PEGylated Aptamer 15)] gave an IC50 [12] of 6.1 nM.

CCGACUUGCCAGUAUUGGCUUAGGCUGGAAGUUUGUCGG (ssRNA, as Aptamer 106; 5' 40 kDa branched PEG via C6NH2; 3' idT) [P08 (PEGylated Aptamer 106)] was tested, and the IC50 [13] was 4.1 nM.

Work on CGACUUGCCAGUAUUGGCGAUGGCUGGAAGUUUGUCG (ssRNA, 2'-F G except 2'-OMe G in stem 1; 2'-OMe A,C,U; 5' C6NH2; 3' idT) [Aptamer 102] yielded a Kd (complement Factor D (fD) [1]) of 1.6 nM, an IC50 [14] of 6.3 nM and a Kd (complement Factor D (fD) [2]) of 2.5 nM.

Work on CGACUUGCCAGUAUUGGCGAUGGCUGGAAGUUUGUCG (ssRNA, as Aptamer 102; 5' 40 kDa branched PEG via C6NH2; 3' idT) [P07 (PEGylated Aptamer 102)] yielded an IC50 [15] of 4.4 nM.

CGACUUGCCAGUAUUGGCGAUGGCUGGAAGUUUGUCG (ssRNA, 2'-F G; 2'-OMe A,C,U; 5' C6NH2; 3' idT) [Aptamer 53] was tested, and the IC50 [16] was less than 10 nM.
